Patent US6982082 (Harvard, dated 2006)

What was measured:
[1] = target: CypA wild type with N-terminal FLAG epitope tag, expressed from pBJ5 in Jurkat cells (UniProt P62937 1-165); assay: cell-based or functional assay
[2] = target: CypAgtm (S99T, F113G, C115M) with N-terminal FLAG epitope tag, expressed from pBJ5 in Jurkat cells (UniProt P62937 1-165); assay: cell-based or functional assay
Sequence of CypAgtm (S99T, F113G, C115M) with N-terminal FLAG epitope tag, expressed from pBJ5 in Jurkat cells (P62937 whole entry S99T/F113G/C115M): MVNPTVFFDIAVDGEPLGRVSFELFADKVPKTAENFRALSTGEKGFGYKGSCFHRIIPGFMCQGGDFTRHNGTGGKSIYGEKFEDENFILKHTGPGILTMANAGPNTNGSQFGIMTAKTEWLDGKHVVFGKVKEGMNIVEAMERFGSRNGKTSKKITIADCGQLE

Sequence of CypA wild type with N-terminal FLAG epitope tag, expressed from pBJ5 in Jurkat cells (P62937 whole entry): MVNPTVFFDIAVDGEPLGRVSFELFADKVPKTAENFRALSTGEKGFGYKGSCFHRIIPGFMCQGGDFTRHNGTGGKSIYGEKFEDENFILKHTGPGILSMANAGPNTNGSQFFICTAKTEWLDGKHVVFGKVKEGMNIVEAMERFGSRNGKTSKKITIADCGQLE

- IC50 in Cellular NFAT-Signalling [1]: > 0.4 µM
- IC50 in Cellular NFAT-Signalling [2]: 0.025 µM
B1: alpha-cyclopentyl, sarcosine11-CsA (CpSar11-CsA) (peptide)
peptide: XXXXXVXAXXX
modifications: head-to-tail cyclic undecapeptide made by cyclising linear peptide 11; residues as printed: CpSar (L-alpha-cyclopentylsarcosine, position 11 of CsA)-MeBmt-Abu-Sar-MeLeu-Val-MeLeu-Ala-D-Ala-MeLeu-MeLeu (N-methylated residues, D-Ala, Abu, MeBmt)
